Data reported in patent US12383572B2, “Administration of an anti-activin-a compound to a subject” (AMGEN INC., priority 2013, dated 2025).

How the values were obtained:
[1] = test system: TOV-21G, BAEC, MRC-5, CCD-Lu, U937 and THP-1 cultures; assay: Real-time RT-PCR of VEGF, Ang-1 and βA in cell cultures treated with recombinant activin-A; type: cell-based; conditions: BAEC
Excerpt: ID NO: 291), [NT] ID NO: 292), and TaqMan probe [NT] ID NO: 293).

[2] = test system: TOV-21G, MRC-5, CCD-Lu and THP-1 cell cultures; assay: VEGF and Ang-1 ELISA of cell culture medium after recombinant activin-A; type: cell-based, human; conditions: TOV21G, MRC-5, CCD-Lu and TPH-1 cells treated with activin-A
Experimental: The serum VEGF levels in inh-KO mice were measured by using immunoassay kit (R & D Systems), and the levels of human VEGF and Ang-1 in cell line culture medium were quantified using ELISA kits purchased from Invitrogen (VEGF) and R & D Systems (Ang-1), by following the manufacturers' recommended protocols.

B1: recombinant activin-A: Recombinant activin-A was produced using mammalian expression system (Amgen Inc) (protein, UniProt P08476 311-426, looked up)
Inhibin beta A chain: GLECDGKVNICCKKQFFVSFKDIGWNDWIIAPSGYHANYCEGECPSHIAGTSGSSLSFHSTVINHYRMRGHSPFANLKSCCVPTKLRPMSMLYYDDGQNIIKKDIQNMIVEECGCS
- Ang-1 mRNA (real-time PCR) ([1]; MRC-5 and CCD-Lu cultures treated with recombinant activin-A): also of Ang-1 mRNA in BAEC, MRC-5 and CCD-Lu cultures
- endogenous activin-A (βA) mRNA expression ([1]; TOV21G, MRC-5, CCD-Lu, U937 and THP-1 cultures, recombinant activin-A added): markedly upregulated βA expression in all these cells
- VEGF transcripts (real-time PCR) ([1]; TOV-21G, MRC-5 or CCD-Lu, U937 cultures treated with recombinant activin-A): marked increases in the levels of VEGF transcripts in all these cultures
- release of VEGF into the culture medium (ELISA) [2]: increased the release of VEGF
